# Results reported in US20180030137A1 (ADURO BIOTECH HOLDINGS EUROPE B V, published 2018).
# Where a chain is given by its changes, count along the chain named. Names may count otherwise.
# B1: H4H7798N (antibody, from another filing, human IgG4, V domains shown)
# VH: EVQLLESGGVLVQPGGSLRLSCAASGFTFSNFGMTWVRQAPGKGLEWVSGISGGGRDTYFADSVKGRFTISRDNSKNTLYLQMNSLKGEDTAVYYCVKWGNIYFDYWGQGTLVTVSS
# VL: DIQMTQSPSSLSASVGDSITITCRASLSINTFLNWYQQKPGKAPNLLIYAASSLHGGVPSRFSGSGSGTDFTLTIRTLQPEDFATYYCQQSSNTPFTFGPGTVVDFRR
# B2: 5C4 (antibody, V domains shown)
# VH: QVQLVQSGAEVKKPGSSVKVSCKASGFTFTTYYISWVRQAPGQGLEYLGYINMGSGGTNYNEKFKGRVTITADKSTSTAYMELSSLRSEDTAVYYCAILGYFDYWGQGTMVTVSS
# VL: DVVMTQSPLSLPVTLGQPASISCRSSQSLLDSDGQTYLYWFQQRPGQSPRRLIYLVSTLGSGVPDRFSGSGSGTDFTLKISRVEAEDVGVYYCMQLTHEPYTFGQGTKLEIK
# B3: hPD1.29H5_A9P_I28T_T31S_L4 (antibody, V domains shown)
# VH: EVQLVQSGPEVKKPGASVKVSCKASGYTFTSYYIHWVKQAPGKGLEWIGWIFPGDVSTQYNEKFQDKATITVDKSASTAYMQLSSLRSEDTAVYYCTREAYDYAVYWGQGTLVTVSS
# VL: DIQMTQAPSSLSASVGDRVTITCKASQNVDTNVAWFQQKPGKAPKSLIFSASYRYSGVPSRFSGSGSGTDFTLTISSLQPEDFATYYCQQYNNYPFTFGGGTKLEIK
# notes: Mutant of hPD1.29H5L4 (human IgG4 S241P kappa format of the parent)
# B4: hPD1.29H5_I28D_T31D_L4 (antibody, V domains shown)
# VH: B3 VH with P9A, T28D, S31D
# VL: B3 VL
# notes: as for B3
# B5: hPD1.29H5_I28T_T31S_L4 (antibody, V domains shown)
# VH: B3 VH with P9A
# VL: B3 VL
# notes: as for B3
# B6: hPD1.29H5_K12V_I28T_T31S_L4 (antibody, V domains shown)
# VH: B3 VH with P9A, K12V
# VL: B3 VL
# notes: as for B3
# B7: hPD1.29H5_A9P_K12V_I28T_T31S_L4 (antibody, V domains shown)
# VH: B3 VH with K12V
# VL: B3 VL
# notes: as for B3
# B8: hPD1.29H5_Y32D_L4 (antibody, V domains shown)
# VH: B3 VH with P9A, T28I, S31T, Y32D
# VL: B3 VL
# notes: IgG4 S241P kappa format of the parent
# B9: hPD1.29H5_T31D_L4 (antibody, V domains shown)
# VH: B3 VH with P9A, T28I, S31D
# VL: B3 VL
# notes: as for B3
# B10: hPD1.29H5_I28D_Y32D_L4 (antibody, V domains shown)
# VH: B3 VH with P9A, T28D, S31T, Y32D
# VL: B3 VL
# notes: as for B8
# B11: hPD1.29H5_K12V_L4 (antibody, V domains shown)
# VH: B3 VH with P9A, K12V, T28I, S31T
# VL: B3 VL
# notes: as for B3
# B12: hPD1.29H5_A9P_K12V_L4 (antibody, V domains shown)
# VH: B3 VH with K12V, T28I, S31T
# VL: B3 VL
# notes: as for B3
# B13: hPD1.29H5_I28D_L4 (antibody, V domains shown)
# VH: B3 VH with P9A, T28D, S31T
# VL: B3 VL
# notes: as for B3
# B14: hPD1.29H5_T30D_L4 (antibody, V domains shown)
# VH: B3 VH with P9A, T28I, T30D, S31T
# VL: B3 VL
# notes: as for B3
# B15: hPD1.29H5_I28D_T30D_L4 (antibody, V domains shown)
# VH: B3 VH with P9A, T28D, T30D, S31T
# VL: B3 VL
# notes: as for B3
# B16: hPD1.29H5_A9P_L4 (antibody, V domains shown)
# VH: B3 VH with T28I, S31T
# VL: B3 VL
# notes: as for B3
# Biological target: Human PD-1 (Swiss-Prot entry Q15116), full length, on cells (human) (UniProt Q15116)
# Sequence (Q15116 21-288): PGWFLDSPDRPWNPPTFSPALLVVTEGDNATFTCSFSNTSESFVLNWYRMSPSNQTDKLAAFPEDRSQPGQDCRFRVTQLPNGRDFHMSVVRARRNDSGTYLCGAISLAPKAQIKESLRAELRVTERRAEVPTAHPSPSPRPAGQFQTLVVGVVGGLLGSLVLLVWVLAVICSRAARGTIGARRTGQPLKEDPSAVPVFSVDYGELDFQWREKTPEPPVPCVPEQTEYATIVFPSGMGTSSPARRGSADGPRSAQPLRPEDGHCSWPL
# Test: CELISA on CHO-K1.hPDCD1 cells
row,EC50 [nM],Binder
1,0.1,B1

# Biological target: T1, hPD-1/Fc fusion protein (R&D Systems) (human, UniProt Q15116 25-167)
# T1 construct: Bought reagent; also called Recombinant hPD-1/Fc; not shown: Fc part of the bought fusion protein
# T1 sequence (Q15116 25-167 limits assumed): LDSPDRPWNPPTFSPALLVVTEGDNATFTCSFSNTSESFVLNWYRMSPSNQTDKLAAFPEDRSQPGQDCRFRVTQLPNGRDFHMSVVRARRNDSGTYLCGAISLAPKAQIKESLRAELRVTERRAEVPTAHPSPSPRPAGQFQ
# Test: BLI competition: second antibody on hPD-1/Fc held by immobilised hPD1.29H5L4 (competitor: hPD1.29H5L4)
row,Binding (nm),Binder
1,0.014,B1

# Biological target: Human PD-1 (Swiss-Prot entry Q15116), full length, on cells (human) (UniProt Q15116)
# Test: CELISA on CHO-K1.hPDCD1 cells; blocking of biotinylated hPD-L2 Fc
row,IC50 [nM],Binder
1,0.57,B1

# Biological target: T1, hPD-1/Fc fusion protein (R&D Systems)
# Test: BLI (Octet RED96), hPD-1/Fc amine-coupled, IgG in solution, 1:1 global fit
# Procedure: This assay was, performed by coupling hPD-1/Fc fusion protein (R&D Systems) to amine-reactive second generation biosensors (Fortebio) using standard amine chemistry. […] Amine-reactive biosensors were pre-wet by immersing them in wells containing 0.1M MES pH=5.5 for 10 minutes. The biosensors were then activated using a 0.1M NHS/0.4M EDC mixture for 5 minutes. hPD-1/Fc fusion protein was coupled by immersing the biosensors in a solution of 12 ug/mL hPD-1/Fc in 0.1 M MES for 7.5 minutes. The biosensor surface was quenched using a solution of 1M ethanolamine for 5 minutes. Biosensors were equilibrated in Octet kinetics buffer (ForteBio) for 5 minutes. […] Dissociation was measured after transfer of the biosensors into kinetics buffer and monitoring of the interferometry signal for 45 minutes. The assay was run with a plate temperature of 30° C. The observed on and off rates (kobs and kd) were fit using a 1:1 binding global fit model comprising all concentrations tested, and the equilibrium binding constant KD was calculated.
Kd [nM],koff [s⁻¹],kon [M⁻¹ s⁻¹],Binder
0.011,1.2e-05,1.1e+06,B1
0.014,2.9e-05,2.1e+06,B2

# Biological target: T2, Human PD-1 (Swiss-Prot entry Q15116), full length, on cells (human, UniProt Q15116 21-288)
# T2 construct: Full length open reading frame of hPD-1 stably expressed on CHO-K1 cells; also endogenous PD-1 on CD3/CD28-stimulated human CD3+ T cells and PD-1 on transfected Jurkat cells; also called hPD-1; hPDCD1
# T2 sequence (Q15116 21-288): as the sequence (Q15116 21-288) above
# Test: CELISA on CHO-K1.hPDCD1 cells; blocking of biotinylated hPD-L2 Fc
# Procedure: Parental CHO-K1 or CHO-K1.hPDCD1 cells were seeded in tissue culture plates and incubated for 72 hours at 37° C. in culture medium. […] Cells were then washed three times with PBST followed by addition of Streptavidin-HRP conjugate on the cells, which was incubated for 1 hour at 37° C. […] Reactions were stopped with 100 al 0.5 M H₂SO₄ and absorbances were read at 450 and 610 nm. […] Calculated IC50 values represent the concentration at which half of the inhibition is observed.
row,IC50 [nM],Binder
1,0.58,B2

# Biological target: T2, Human PD-1 (Swiss-Prot entry Q15116), …
# Test: CELISA on CHO-K1.hPDCD1 cells
# Procedure: (§1) To further characterize these mutant hPD-1 antibodies they were tested for binding to hPD-1 in CELISA format using CHO-K1 cells (American Type Culture Collection, Manassas, Va.), stably transfected with cDNA encoding the full length open reading frame of hPDCD1 (hPD-1), subcloned into the pCI-neo vector (Promega). Parental CHO-K1 or CHO-K1.hPDCD1 cells were seeded in culture medium (DMEM-F12 (Gibco) with 10% Fetal Bovine Serum (Hyclone) and Pen/Strep (Gibco)) in tissue culture plates and incubated for 48 hours at 37° C. Subsequently culture medium was removed and cells were incubated for 1 hour at 37° C. with the mutant hPD-1 antibodies (10 μg/ml (=66 nM) and dilutions thereof). Next, cells were washed with Phosphate-Buffered Saline/0.05% Tween (PBST) and incubated for 1 hour at 37° C. with Goat-anti-human IgG-HRP (Southern Biotech). Subsequently, cells were washed 3 times with PBST and anti-hPD1 immunoreactivity was visualized with 100 al TMB Stabilized Chromagen (Invitrogen). Reactions were stopped with 100 al 0.5 M H2SO4 and absorbances were read at 450 and 610 nm. […] Blockade of hPD-L1 binding by the mutant hPD-1 antibodies was tested in CELISA format. […] Reactions were stopped with 100 al 0.5 M H2SO4 and absorbances were read at 450 and 610 nm. Calculated IC50 values in Table 12 for the blockade of hPD-L1 represent the concentration at which half of the inhibition is observed.
row,EC50 [nM],Binder
1,0.08,B2

# Biological target: T2, Human PD-1 (Swiss-Prot entry Q15116), …
# Test: CELISA on CHO-K1.hPDCD1 cells; blocking of biotinylated hPD-L1 Fc
# Procedure: as §1, with “format. Parental CHO-K1 or CHO-K1.hPDCD1 cells were seeded in tissue culture plates and incubated for 72 hours at 37° C. in culture medium. Subsequently culture medium was removed and cells were incubated for 1 hour with the mutant hPD-1 antibodies (10 μg/ml (=66 nM) and dilutions thereof) at 37° C. […] Cells were then washed three times with PBST followed by addition of Streptavidin-HRP conjugate on the cells, which was incubated for 1 hour at 37° C.” for “format.”
row,IC50 [nM],Binder
1,1.2,B3
2,1.4,B4
3,1.1,B5
4,1.2,B6
5,1.2,B7
6,1.4,B8
7,1.7,B9
8,1.3,B10
9,1.4,B11
10,1.3,B12
11,1.6,B13
12,1.6,B14
13,1.6,B15
14,1.4,B16

# Biological target: Human PD-1 (Swiss-Prot entry Q15116), full length, on cells (human) (UniProt Q15116)
# Test: as above
row,IC50 [nM],Binder
1,0.45,B1

# Biological target: T2, Human PD-1 (Swiss-Prot entry Q15116), …
# Test: as above
# Remark: another data set of the same source
# Procedure: as §1
row,IC50 [nM],Binder
1,0.49,B2

# Biological target: T2, Human PD-1 (Swiss-Prot entry Q15116), …
# Test: CELISA on CHO-K1.hPDCD1 cells
# Remark: another data set of the same source
# Procedure: as §1, with “format. Parental CHO-K1 or CHO-K1.hPDCD1 cells were seeded in tissue culture plates and incubated for 72 hours at 37° C. in culture medium. Subsequently culture medium was removed and cells were incubated for 1 hour with the mutant hPD-1 antibodies (10 μg/ml (=66 nM) and dilutions thereof) at 37° C. […] Cells were then washed three times with PBST followed by addition of Streptavidin-HRP conjugate on the cells, which was incubated for 1 hour at 37° C.” for “format.”
row,EC50 [nM],Binder
1,0.3,B3
2,0.4,B4
3,0.3,B5
4,0.3,B6
5,0.3,B7
6,0.3,B8
7,0.4,B9
8,0.4,B10
9,0.4,B11
10,0.4,B12
11,0.3,B13
12,0.3,B14
13,0.4,B15
14,0.4,B16

# Biological target: T2, Human PD-1 (Swiss-Prot entry Q15116), …
# Test: cell-based or functional assay
row,"IC50; NFAT-luciferase signal (RLU) of Jurkat cells expressing human PD-1, with CHO cells expressing hPD-L1 [nM]",Binder
1,5.79,B2

# Biological target: Human PD-1 (Swiss-Prot entry Q15116), full length, on cells (human) (UniProt Q15116)
# Test: not given
row,"IC50; NFAT-luciferase signal (RLU) of Jurkat cells expressing human PD-1, with CHO cells expressing hPD-L1 [nM]",Binder
1,7.27,B1
